How the values were obtained:
[1] = test system: VEGF; test: Multiplex analysis, chemotherapy (5-FU), TR146; format: cell-based, human; conditions: for VEGF against chemotherapy induced levels: 5-FU, in words
Method: (§1) Oral buccal mucosal cells (TR146) cells were incubated overnight at 37° C. in 5% CO2 incubator. […] The cells were then stimulated with 5-FU (10 mM) for another 24h for chemotherapy and with gamma radiation (3.5 kGy) using Cobalt 60 for radiotherapy. After 24 h, cell culture supernatants were collected from each well and stored at −20° C. till multiplex analysis. For NF-kB estimations, cell lysates were prepared. Levels of biomarkers were estimated using Magpix® multiplex machine. The cells treated with Amifostine (along with 5-FU or radiation) were considered as positive control (PC). Untreated cells (5-FU or radiation alone treated) were used as negative control (NC).
(§2) The percent modulation in each sample was determined as follows:
(§3) [{Concentration of biomarkers (pg/ml) in Control cells (5-FU or radiation alone treated)−Concentration of biomarkers (pg/ml) in SEQ ID NO: 2+5-FU or radiation treated cells)}/Concentration of biomarkers (pg/ml) in Control cells (5-FU or radiation alone treated)]*100

[2] = test system: MMP-3; test: Multiplex analysis, chemotherapy (5-FU), TR146; format: cell-based, human; conditions: for MMP-3 against chemotherapy induced levels: 5-FU, in words
Method: as §1, §2, §3

[3] = test system: IL-6; test: Multiplex analysis, chemotherapy (5-FU), TR146; format: cell-based, human; conditions: for IL-6 against chemotherapy induced levels: 5-FU, in words
Method: as §1, §2, §3

[4] = test system: IL-1β; test: Multiplex analysis, chemotherapy (5-FU), TR146; format: cell-based, human; conditions: for IL-1-β against chemotherapy induced levels: 5-FU, in words
Method: as §1, §2, §3

[5] = test system: TNF-α; test: TNF-α in jugular mucosa (ELISA), 5-FU induced OM in hamsters; format: in vivo, golden Syrian hamsters; conditions: for TNF-α levels, % Decrease vs G2: G2 = OM + Vehicle
Method: To induce OM, animals were administered (except normal control) 5-Fluorouracil (5-FU) by intraperitoneal route at doses of 60 mg/kg & 40 mg/kg respectively on first two days. On Day 4, under anesthesia, with aim of enhancing OM, mechanical irritation of the oral mucosa were done using wire brush. Treatment was initiated from Day 4 to Day 12. For group 3 animals 100 μl of vehicle comprising of standard drug Dexamethasone at 0.1 mg was instilled in buccal cheek pouch. For group 4, 5 and 6 animals 100 μl of vehicle comprising of SEQ ID NO. 2 at 0.25 mg, 0.5 mg & 1 mg, respectively was instilled in buccal cheek pouch. At the end of treatment period, cheek pouch of the hamsters was exposed, Mucositis scoring was carried out and images were captured. The animals were then humanely sacrificed, cheek pouch/jugular mucosa were isolated and used for biomarker estimation and histopathological investigation by using ELISA method and Hematoxylin and Eosin (H&E) staining, respectively.
Further, for biomarker estimation jugular mucosa was dissected out, tissue weighed and stored in ice cold 1×PBS. 100 mg of tissue was taken and in 1 ml of 1×PBS buffer. Supernatant of homogenate was used for analysis of TNF-α and Interleukin-1β using ELISA method as per manufacturers instruction. The levels of TNF-α and Interleukin-1β are given in Table 13, FIG. 2 and Table 14, FIG. 3, respectively.

[6] = test system: oral (buccal) mucosa cells (TR146); test: Restoration of mitochondrial membrane potential (JC-1) against 5-FU induced damage; format: cell-based, human; conditions: for MMP: mitochondrial membrane potential, red/green JC-1 fluorescence ratio
Method: Oral buccal mucosal cells (TR146) were incubated overnight in 5% CO2 incubator at 37° C. for 24 h. […] After 24 h of treatment, cells were exposed to damage (5-FU 5 mM) for 1.25 h for chemotherapy induced inflammation and exposed to gamma radiation (3.5 kGy) using Cobalt 60 for radiation induced inflammation. After the exposure, the anti-apoptotic effect of SEQ ID NO 2 was determined by restoration of mitochondrial membrane depolarization by JC-1 staining and reduction in apoptotic cell populations (Annexin positive and subG0/G1 cells in cell cycle analysis).
After incubation, the supernatants were discarded and 100 μl of JC1-dye solution (prepared by diluting 1 mM DMSO stock into 10 μM in 1×PBS) was added to each well. The cells were then incubated with the dye in CO2 incubator at 37° C. for 15 min, after which the supernatant was removed, and the cells were washed twice with 1×PBS. 100 μl of 1×PBS was finally added to each well. Red fluorescence (excitation 550 nm, emission 600 nm) and green fluorescence (excitation 485 nm, emission 535 nm) were measured using Biotek Synergy HT plate reader. The mitochondrial membrane potential (Δψm) was calculated as the ratio of intensity of red fluorescence to intensity of green fluorescence.
The percentage increase/restoration in mitochondrial membrane potential (MMP) was calculated as: % Increase=[(R−X)/R]*100 • Where, X=Δψm corresponding to TI+5-FU treated cells or TI+radiation treated cells; R=Δψm corresponding to control cells (FU damaged or Radiation damaged alone)

[7] = test system: NF-kB; test: Multiplex analysis, radiotherapy, TR146 cell lysates; format: cell-based, human
Method: as §1, §2, §3

[8] = test system: NF-kB; test: Multiplex analysis, chemotherapy (5-FU), TR146 cell lysates; format: cell-based, human
Method: as §1, §2, §3

B1: SEQ ID NO 2: recombinant lectin, variant of the S. rolfsii lectin amino acid sequence (reported as Rec-2 in WO 2010/095143) (protein)
chain: TYKITVRVYQTNPDAFFHPVEKTVWKYANGGTWTITDDQHVLTMGGSGTSGTLRFHADNGESFTATFGVHNYKRWCDIVTNLAADETGMVINQQYYSQKNREEARERQLSNYQVKNAKGRNFQIVYTEAEGNDLHANLIIG
- Percentage Inhibition VGEF ([1]; 0.1 μg/ml + 5-FU (10 mM)): 25%
- Percentage Inhibition VGEF ([1]; 10 μg/ml + 5-FU (10 mM)): 24.4%
- Percentage Inhibition VGEF ([1]; 25 μg/ml + 5-FU (10 mM)): 28%
- Percentage Inhibition VGEF ([1]; 50 μg/ml + 5-FU (10 mM)): 37.8%
- Percentage Inhibition VGEF ([1]; 100 μg/ml + 5-FU (10 mM)): 41.7%
- VEGF against chemotherapy induced levels [1]: lowering of levels
- VEGF against chemotherapy induced levels ([1]; listed as test items): downregulation
- Percentage Inhibition MMP-3 ([2]; 0.1 μg/ml + 5-FU (10 mM)): 22%
- Percentage Inhibition MMP-3 ([2]; 10 μg/ml + 5-FU (10 mM)): 29.5%
- Percentage Inhibition MMP-3 ([2]; 25 μg/ml + 5-FU (10 mM)): 30.6%
- Percentage Inhibition MMP-3 ([2]; 50 μg/ml + 5-FU (10 mM)): 27.3%
- Percentage Inhibition MMP-3 ([2]; 100 μg/ml + 5-FU (10 mM)): 8.8%
- MMP-3 against chemotherapy induced levels [2]: lowering of levels
- MMP-3 against chemotherapy induced levels ([2]; listed as test items): downregulation
- Percentage Inhibition IL-6 ([3]; 0.1 μg/ml + 5-FU (10 mM)): 5.4%
- Percentage Inhibition IL-6 ([3]; 10 μg/ml + 5-FU (10 mM)): 7.8%
- Percentage Inhibition IL-6 ([3]; 25 μg/ml + 5-FU (10 mM)): 18.2%
- Percentage Inhibition IL-6 ([3]; 50 μg/ml + 5-FU (10 mM)): 38.6%
- Percentage Inhibition IL-6 ([3]; 100 μg/ml + 5-FU (10 mM)): 42.2%
- IL-6 against chemotherapy induced levels [3]: lowering of levels
- IL-6 against chemotherapy induced levels ([3]; listed as test items): downregulation
- Percentage Inhibition IL-1β ([4]; 0.1 μg/ml + 5-FU (10 mM)): 5.5%
- Percentage Inhibition IL-1β ([4]; 10 μg/ml + 5-FU (10 mM)): 3.6%
- Percentage Inhibition IL-1β ([4]; 25 μg/ml + 5-FU (10 mM)): 11%
- Percentage Inhibition IL-1β ([4]; 50 μg/ml + 5-FU (10 mM)): 29.1%
- Percentage Inhibition IL-1β ([4]; 100 μg/ml + 5-FU (10 mM)): 23.5%
- IL-1-β against chemotherapy induced levels [4]: lowering of levels
- IL-1-β against chemotherapy induced levels ([4]; listed as test items): downregulation
- TNF-α levels, Mean ([5]; G4, 0.25 mg/Animal): 153.48 pg/mL
- TNF-α levels, % Decrease vs G2 ([5]; G4, 0.25 mg/Animal): −23.77%
- TNF-α levels, Mean ([5]; G5, 0.5 mg/Animal): 155.76 pg/mL
- TNF-α levels, % Decrease vs G2 ([5]; G5, 0.5 mg/Animal): −25.61%
- TNF-α levels, Mean ([5]; G6, 1 mg/Animal): 79.37 pg/mL
- TNF-α levels, % Decrease vs G2 ([5]; G6, 1 mg/Animal): 36.00%
- levels of TNF-α as compared to the untreated subjects ([5]; hamsters suffering from OM, in words): reduction
- % Increase in MMP (with respect to control) ([6]; 0.01 μg/ml + 5FU): about 67%
- MMP ([6]; 0.01 μg/ml + 5FU): 14.1
- % Increase in MMP (with respect to control) ([6]; 0.1 μg/ml + 5FU): 67.5%
- MMP ([6]; 0.1 μg/ml + 5FU): 14.2
- % Increase in MMP (with respect to control) ([6]; 1 μg/ml + 5FU): 81.5%
- MMP ([6]; 1 μg/ml + 5FU): 15.4
- % Increase in MMP (with respect to control) ([6]; 10 μg/ml + 5FU): 79.6%
- MMP ([6]; 10 μg/ml + 5FU): 15.2
- % Increase in MMP (with respect to control) ([6]; 25 μg/ml + 5FU): 104.8%
- MMP ([6]; 25 μg/ml + 5FU): 17.3
- MMP ([6]; 50 μg/ml + 5FU): 17.8
- % Increase in MMP (with respect to control) ([6]; 100 μg/ml + 5FU): 106.2%
- MMP ([6]; 100 μg/ml + 5FU): 17.5
- Percentage Inhibition NF-kB ([7]; 0.01 μg/ml + Radiation (3.5 kGy)): 11.8%
- Percentage Inhibition NF-kB ([7]; 0.1 μg/ml + Radiation (3.5 kGy)): 9.9%
- Percentage Inhibition NF-kB ([7]; 1 μg/ml + Radiation (3.5 kGy)): 9.9%
- Percentage Inhibition NF-kB ([7]; 10 μg/ml + Radiation (3.5 kGy)): 4%
- Percentage Inhibition NF-kB ([7]; 25 μg/ml + Radiation (3.5 kGy)): −4%
- Percentage Inhibition NF-kB ([8]; 0.1 μg/ml + 5-FU (10 mM)): 88.6%
- Percentage Inhibition NF-kB ([8]; 10 μg/ml + 5-FU (10 mM)): 98.4%
- Percentage Inhibition NF-kB ([8]; 25 μg/ml + 5-FU (10 mM)): 59.7%
- Percentage Inhibition NF-kB ([8]; 50 μg/ml + 5-FU (10 mM)): 53%
- Percentage Inhibition NF-kB ([8]; 100 μg/ml + 5-FU (10 mM)): 84.3%

Source: US20250064890A1, “PROTEIN COMPOSITIONS FOR THE TREATMENT OF INFLAMMATORY DISEASES” (Unichem Laboratories Limited, priority 2021, published 2025)
